In patent publication US20250352667A1:

Tests used:
[1] = target: KEAP1 (wild-type full-length), His-tagged (human) (UniProt Q14145); assay: AlphaScreen; 2.4 nM FLAG-NRF2, 150 nM His-KEAP1; Rep 2
[2] = target: KEAP1 (wild-type full-length), His-tagged (human) (UniProt Q14145); assay: AlphaScreen; 4.8 nM FLAG-NRF2, 150 nM His-KEAP1; Rep 1
[3] = target: KEAP1 (wild-type full-length), His-tagged (human) (UniProt Q14145); assay: AlphaScreen; 4.8 nM FLAG-NRF2, 150 nM His-KEAP1; Rep 2
[4] = target: KEAP1 (wild-type full-length), His-tagged (human) (UniProt Q14145); assay: AlphaScreen; 9.6 nM FLAG-NRF2, 150 nM His-KEAP1; Rep 1
[5] = target: KEAP1 (wild-type full-length), His-tagged (human) (UniProt Q14145); assay: AlphaScreen; 9.6 nM FLAG-NRF2, 150 nM His-KEAP1; Rep 2
[6] = target: KEAP1 (wild-type full-length), His-tagged (human) (UniProt Q14145); assay: AlphaScreen; 19.2 nM FLAG-NRF2, 150 nM His-KEAP1; Rep 1
[7] = target: KEAP1 (wild-type full-length), His-tagged (human) (UniProt Q14145); assay: AlphaScreen; 19.2 nM FLAG-NRF2, 150 nM His-KEAP1; Rep 2
[8] = target: KEAP1 (wild-type full-length), His-tagged (human) (UniProt Q14145); assay: AlphaScreen; 38.4 nM FLAG-NRF2, 150 nM His-KEAP1; Rep 1
[9] = target: KEAP1 (wild-type full-length), His-tagged (human) (UniProt Q14145); assay: AlphaScreen; 38.4 nM FLAG-NRF2, 150 nM His-KEAP1; Rep 2
[10] = target: KEAP1 (wild-type full-length), His-tagged (human) (UniProt Q14145); assay: AlphaScreen; 76.8 nM FLAG-NRF2, 150 nM His-KEAP1; Rep 1
[11] = target: KEAP1 (wild-type full-length), His-tagged (human) (UniProt Q14145); assay: AlphaScreen; 76.8 nM FLAG-NRF2, 150 nM His-KEAP1; Rep 2
[12] = target: KEAP1 (wild-type full-length), His-tagged (human) (UniProt Q14145); assay: AlphaScreen; 153.6 nM FLAG-NRF2, 150 nM His-KEAP1; Rep 1
[13] = target: KEAP1 (wild-type full-length), His-tagged (human) (UniProt Q14145); assay: AlphaScreen; 153.6 nM FLAG-NRF2, 150 nM His-KEAP1; Rep 2
[14] = target: KEAP1 (wild-type full-length), His-tagged (human) (UniProt Q14145); assay: AlphaScreen; 307.2 nM FLAG-NRF2, 150 nM His-KEAP1; Rep 1
[15] = target: KEAP1 (wild-type full-length), His-tagged (human) (UniProt Q14145); assay: AlphaScreen; 307.2 nM FLAG-NRF2, 150 nM His-KEAP1; Rep 2
[16] = target: KEAP1 (wild-type full-length), His-tagged (human) (UniProt Q14145); assay: AlphaScreen; 614.4 nM FLAG-NRF2, 150 nM His-KEAP1; Rep 1
[17] = target: KEAP1 (wild-type full-length), His-tagged (human) (UniProt Q14145); assay: AlphaScreen; 614.4 nM FLAG-NRF2, 150 nM His-KEAP1; Rep 2
[18] = target: KEAP1 (wild-type full-length), His-tagged (human) (UniProt Q14145); assay: AlphaScreen; 1228.8 nM FLAG-NRF2, 150 nM His-KEAP1; Rep 1
[19] = target: KEAP1 (wild-type full-length), His-tagged (human) (UniProt Q14145); assay: AlphaScreen; 1228.8 nM FLAG-NRF2, 150 nM His-KEAP1; Rep 2
[20] = target: KEAP1 (wild-type full-length), His-tagged (human) (UniProt Q14145); assay: AlphaScreen; 2.4 nM FLAG-NRF2, 150 nM His-KEAP1; signal against NRF2 only
[21] = target: KEAP1 (wild-type full-length), His-tagged (human) (UniProt Q14145); assay: AlphaScreen; 4.8 nM FLAG-NRF2, 150 nM His-KEAP1; signal against NRF2 only
[22] = target: KEAP1 (wild-type full-length), His-tagged (human) (UniProt Q14145); assay: AlphaScreen; 9.6 nM FLAG-NRF2, 150 nM His-KEAP1; signal against NRF2 only
[23] = target: KEAP1 (wild-type full-length), His-tagged (human) (UniProt Q14145); assay: AlphaScreen; 19.2 nM FLAG-NRF2, 150 nM His-KEAP1; signal against NRF2 only
[24] = target: KEAP1 (wild-type full-length), His-tagged (human) (UniProt Q14145); assay: AlphaScreen; 38.4 nM FLAG-NRF2, 150 nM His-KEAP1; signal against NRF2 only
[25] = target: KEAP1 (wild-type full-length), His-tagged (human) (UniProt Q14145); assay: AlphaScreen; 76.8 nM FLAG-NRF2, 150 nM His-KEAP1; signal against NRF2 only
[26] = target: KEAP1 (wild-type full-length), His-tagged (human) (UniProt Q14145); assay: AlphaScreen; 153.6 nM FLAG-NRF2, 150 nM His-KEAP1; signal against NRF2 only
[27] = target: KEAP1 (wild-type full-length), His-tagged (human) (UniProt Q14145); assay: AlphaScreen; 307.2 nM FLAG-NRF2, 150 nM His-KEAP1; signal against NRF2 only
[28] = target: KEAP1 (wild-type full-length), His-tagged (human) (UniProt Q14145); assay: AlphaScreen; 614.4 nM FLAG-NRF2, 150 nM His-KEAP1; signal against NRF2 only
[29] = target: KEAP1 (wild-type full-length), His-tagged (human) (UniProt Q14145); assay: AlphaScreen; 1228.8 nM FLAG-NRF2, 150 nM His-KEAP1; signal against NRF2 only

KEAP1 (wild-type full-length), His-tagged (human), sequence (Q14145 2-624 limits assumed, form in doubt): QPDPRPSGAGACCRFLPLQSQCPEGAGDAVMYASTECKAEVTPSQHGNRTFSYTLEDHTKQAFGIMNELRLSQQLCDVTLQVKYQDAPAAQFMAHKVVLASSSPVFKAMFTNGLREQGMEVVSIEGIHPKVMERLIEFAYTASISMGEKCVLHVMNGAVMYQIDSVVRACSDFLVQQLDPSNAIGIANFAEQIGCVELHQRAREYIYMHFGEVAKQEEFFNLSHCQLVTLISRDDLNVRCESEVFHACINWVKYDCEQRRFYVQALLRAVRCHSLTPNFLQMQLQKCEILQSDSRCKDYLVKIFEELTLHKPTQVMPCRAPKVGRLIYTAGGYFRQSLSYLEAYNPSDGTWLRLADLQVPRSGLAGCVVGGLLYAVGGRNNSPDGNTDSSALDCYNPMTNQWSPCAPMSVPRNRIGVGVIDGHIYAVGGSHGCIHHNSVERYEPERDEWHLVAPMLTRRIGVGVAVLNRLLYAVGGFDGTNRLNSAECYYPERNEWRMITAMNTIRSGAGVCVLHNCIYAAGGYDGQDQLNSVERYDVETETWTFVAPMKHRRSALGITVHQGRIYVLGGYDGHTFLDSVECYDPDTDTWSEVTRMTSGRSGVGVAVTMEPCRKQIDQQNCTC

Q: Which A-counts [1] does the source give for “NRF2 isoform 2 (wild-type full-length), FLAG-tagged” here?
A: 1010 A-counts

Q: What about the A-counts [2] of the same substance?
A: 1740 A-counts

Q: What about the A-counts [3] of the same substance?
A: 1670 A-counts

Q: What about the A-counts [4] of the same substance?
A: 2310 A-counts

Q: What about the A-counts [5] of the same substance?
A: 2590 A-counts

Q: And the A-counts [6]?
A: 3480 A-counts

Q: And the A-counts [7]?
A: 3260 A-counts

Q: And the A-counts [8]?
A: 3470 A-counts

Q: And the A-counts [9]?
A: 3460 A-counts

Q: What about the A-counts [10] of the same substance?
A: 3730 A-counts

Q: And the A-counts [11]?
A: 3910 A-counts

Q: And the A-counts [12]?
A: 3200 A-counts

Q: And the A-counts [13]?
A: 3500 A-counts

Q: What about the A-counts [14] of the same substance?
A: 2970 A-counts

Q: And the A-counts [15]?
A: 2860 A-counts

Q: And the A-counts [16]?
A: 2430 A-counts

Q: What about the A-counts [17] of the same substance?
A: 2290 A-counts

Q: What about the A-counts [18] of the same substance?
A: 1480 A-counts

Q: And the A-counts [19]?
A: 1470 A-counts

Q: And the S/N [20]?
A: 2

Q: What about the S/N [21] of the same substance?
A: 2.7

Q: What about the S/N [22] of the same substance?
A: 3.7

Q: What about the S/N [23] of the same substance?
A: 4.2

Q: And the S/N [24]?
A: 3.4

Q: And the S/N [25]?
A: 3.4

Q: And the S/N [26]?
A: 2.8

Q: What about the S/N [27] of the same substance?
A: 2.2

Q: And the S/N [28]?
A: 2.1

Q: What about the S/N [29] of the same substance?
A: 1.3

Q: How did the A-counts [1] turn out when “NRF2 isoform 2 (E63G/E66G full-length), FLAG-tagged” was run?
A: 1120 A-counts

Q: And the A-counts [2]?
A: 1390 A-counts

Q: And the A-counts [3]?
A: 1480 A-counts

Q: What about the A-counts [4] of the same substance?
A: 1670 A-counts

Q: What about the A-counts [5] of the same substance?
A: 1520 A-counts

Q: What about the A-counts [6] of the same substance?
A: 1700 A-counts

Q: And the A-counts [7]?
A: 1950 A-counts

Q: And the A-counts [8]?
A: 2120 A-counts

Q: And the A-counts [9]?
A: 1960 A-counts

Q: What about the A-counts [10] of the same substance?
A: 2140 A-counts

Q: And the A-counts [11]?
A: 1900 A-counts

Q: What about the A-counts [12] of the same substance?
A: 1820 A-counts

Q: What about the A-counts [13] of the same substance?
A: 1840 A-counts

Q: And the A-counts [14]?
A: 1600 A-counts

Q: And the A-counts [15]?
A: 1650 A-counts

Q: And the A-counts [16]?
A: 1570 A-counts

Q: And the A-counts [17]?
A: 1400 A-counts

Q: And the A-counts [18]?
A: 1250 A-counts

Q: And the A-counts [19]?
A: 1210 A-counts

Q: What about the S/N [20] of the same substance?
A: 1.7

Q: And the S/N [21]?
A: 1.8

Q: What about the S/N [22] of the same substance?
A: 1.8

Q: What about the S/N [23] of the same substance?
A: 1.8

Q: What about the S/N [24] of the same substance?
A: 1.8

Q: And the S/N [25]?
A: 1.7

Q: What about the S/N [26] of the same substance?
A: 1.5

Q: What about the S/N [27] of the same substance?
A: 1.1

Q: And the S/N [28]?
A: 1.1

Q: And the S/N [29]?
A: 1
